# According to publication doi:10.1101/2025.09.22.677823:
# How the values were obtained:
# [1] = biological target: Human adenovirus 7 fiber (human adenovirus 7); assay: cryo-EM structure
# [2] = biological target: Human adenovirus 7 penton base (human adenovirus 7); assay: cryo-EM structure
Substance,stoichiometry N [1],stoichiometry N [2]
Human adenovirus 7 fiber (natural protein),3,–
Human adenovirus 7 penton base (natural protein),–,5
